The results in this text go back to patent US20240392004A1 (IMMUNOWAKE, published 2024).

Experiment in all cases: cell-based or functional assay
The target in experiment [1] is T1, human PD-1 on cells (HEK-PD-1 reporter cells; activated PBMC) (human, UniProt Q15116 25-288).
The target in experiment [2] is T1, human PD-1 on cells (HEK-PD-1 reporter …). The source holds these as a separate data set.
Experiment [3] addresses human IL-12 receptor complex (IL-12Rβ1 and IL-12Rβ2) (human, UniProt P42701 24-662; Q99665 24-862).
Experiment [4] deals with T2, IFN-γ receptor (IFNGR1 and IFNGR2) (UniProt P15260 18-489; P38484 22-337, limits assumed).
T2 sequence (looked up) 1: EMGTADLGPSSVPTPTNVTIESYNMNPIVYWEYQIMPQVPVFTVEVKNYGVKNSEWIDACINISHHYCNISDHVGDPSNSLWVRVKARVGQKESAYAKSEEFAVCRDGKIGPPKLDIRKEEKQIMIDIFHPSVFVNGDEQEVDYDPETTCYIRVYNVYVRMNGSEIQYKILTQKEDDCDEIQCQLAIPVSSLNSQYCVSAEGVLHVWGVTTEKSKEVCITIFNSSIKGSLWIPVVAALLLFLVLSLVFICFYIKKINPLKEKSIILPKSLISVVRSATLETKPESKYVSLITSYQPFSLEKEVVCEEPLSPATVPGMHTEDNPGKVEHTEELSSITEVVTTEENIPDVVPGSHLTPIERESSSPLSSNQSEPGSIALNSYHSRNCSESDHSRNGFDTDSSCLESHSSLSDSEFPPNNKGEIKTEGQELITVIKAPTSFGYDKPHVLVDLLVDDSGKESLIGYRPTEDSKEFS
T2 sequence (looked up) 2: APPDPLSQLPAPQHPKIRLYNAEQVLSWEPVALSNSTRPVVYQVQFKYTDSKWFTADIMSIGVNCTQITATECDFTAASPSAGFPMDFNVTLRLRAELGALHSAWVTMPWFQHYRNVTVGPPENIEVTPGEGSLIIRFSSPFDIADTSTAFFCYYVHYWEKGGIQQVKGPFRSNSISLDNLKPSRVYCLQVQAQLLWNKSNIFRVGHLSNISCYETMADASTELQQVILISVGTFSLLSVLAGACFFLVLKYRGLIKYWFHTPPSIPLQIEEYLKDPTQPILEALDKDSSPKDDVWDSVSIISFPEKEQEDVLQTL

T1 sequence (Q15116 25-288): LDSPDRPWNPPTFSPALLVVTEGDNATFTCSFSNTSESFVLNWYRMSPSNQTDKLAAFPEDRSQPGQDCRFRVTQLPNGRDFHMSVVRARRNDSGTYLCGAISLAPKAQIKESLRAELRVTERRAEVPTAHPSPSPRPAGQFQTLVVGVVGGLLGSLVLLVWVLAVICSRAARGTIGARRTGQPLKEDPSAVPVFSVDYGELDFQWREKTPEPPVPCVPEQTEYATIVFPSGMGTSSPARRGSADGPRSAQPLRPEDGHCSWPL
Chain of human IL-12 receptor complex (IL-12Rβ1 and IL-12Rβ2) (Q99665 24-862, chain 2 of 2, other chains not shown): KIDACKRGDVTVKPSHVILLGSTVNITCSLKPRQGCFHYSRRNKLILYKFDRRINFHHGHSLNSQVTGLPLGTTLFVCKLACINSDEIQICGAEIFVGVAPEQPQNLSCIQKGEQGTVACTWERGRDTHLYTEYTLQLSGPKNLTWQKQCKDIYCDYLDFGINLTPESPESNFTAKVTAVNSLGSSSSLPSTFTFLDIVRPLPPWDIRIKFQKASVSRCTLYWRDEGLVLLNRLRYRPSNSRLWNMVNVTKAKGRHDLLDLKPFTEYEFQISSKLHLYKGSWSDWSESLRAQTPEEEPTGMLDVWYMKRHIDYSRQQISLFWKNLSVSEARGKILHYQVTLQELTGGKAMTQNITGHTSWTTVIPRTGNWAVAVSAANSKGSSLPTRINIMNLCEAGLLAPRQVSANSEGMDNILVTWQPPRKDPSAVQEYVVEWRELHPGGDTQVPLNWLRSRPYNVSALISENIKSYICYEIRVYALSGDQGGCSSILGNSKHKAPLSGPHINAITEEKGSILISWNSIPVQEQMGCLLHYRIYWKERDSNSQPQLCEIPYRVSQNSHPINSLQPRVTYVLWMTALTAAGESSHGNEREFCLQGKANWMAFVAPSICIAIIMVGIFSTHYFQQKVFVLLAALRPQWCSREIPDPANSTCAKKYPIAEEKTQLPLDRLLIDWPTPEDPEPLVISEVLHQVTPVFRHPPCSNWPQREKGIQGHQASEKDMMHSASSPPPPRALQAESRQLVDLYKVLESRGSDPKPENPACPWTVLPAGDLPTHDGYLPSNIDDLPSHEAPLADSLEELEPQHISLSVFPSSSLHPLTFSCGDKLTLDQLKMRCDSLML

B1: PD-L1(I54Q/Y56F/E58M/R113T/M115L/S117A/G119K)-Fc/IL-12(E59A/F60A) (IL-12 at C-terminus of Fc) (Fc fusion)
chain 1: FTVTVPKDLYVVEYGSNMTIECKFPVEKQLDLAALQVFWMMEDKNIIQFVHGEEDLKVQHSSYRQRARLLKDQLSLGNAALQITDVKLQDAGVYTCLIAYKGADYKRITVKVNAPYNKINQRILVVDPVTSEHELTCQAEGYPKAEVIWTSSDHQVLSGKTTTTNSKREEKLFNVTSTLRINTTTNEIFYCTFRRLDPEENHTAELVIPELPLAHPPNERGSGDKTHTCPPCPAPEKKGGPSVFLFPPKPKDTLMISRTPEVTCVVVDVSHEDPEVKFNWYVDGVEVHNAKTKPREEQYNSTYRVVSVLTVLHQDWLNGKEYKCKVSNKALPAPIEKTISKAKGQPREPQVYVLPPSREEMTKNQVSLLCLVKGFYPSDIAVEWESNGQPENRYMTWPPVLDSDGSFFLYSKLTVDKSRWQQGNVFSCSVMHEALHNHYTQKSLSLSPGK
chain 2: FTVTVPKDLYVVEYGSNMTIECKFPVEKQLDLAALQVFWMMEDKNIIQFVHGEEDLKVQHSSYRQRARLLKDQLSLGNAALQITDVKLQDAGVYTCLIAYKGADYKRITVKVNAPYNKINQRILVVDPVTSEHELTCQAEGYPKAEVIWTSSDHQVLSGKTTTTNSKREEKLFNVTSTLRINTTTNEIFYCTFRRLDPEENHTAELVIPELPLAHPPNERGSGDKTHTCPPCPAPEDEGGPSVFLFPPKPKDTLMISRTPEVTCVVVDVSHEDPEVKFNWYVDGVEVHNAKTKPREEQYNSTYRVVSVLTVLHQDWLNGKEYKCKVSNKALPAPIEKTISKAKGQPREPQVYVYPPSREEMTKNQVSLTCLVKGFYPSDIAVEWESNGQPENNYKTTPPVLDEDGSFALVSKLTVDKSRWQQGNVFSCSVMHEALHNHYTQKSLSLSPGKGGGGSGGGGSGGGGSIWELKKDVYVVELDWYPDAPGEMVVLTCDTPEEDGITWTLDQSSEVLGSGKTLTIQVKAAGDAGQYTCHKGGEVLSHSLLLLHKKEDGIWSTDILKDQKEPKNKTFLRCEAKNYSGRFTCWWLTTISTDLTFSVKSSRGSSDPQGVTCGAATLSAERVRGDNKEYEYSVECQEDSACPAAEESLPIEVMVDAVHKLKYENYTSSFFIRDIIKPDPPKNLQLKPLKNSRQVEVSWEYPDTWSTPHSYFSLTFCVQVQGKSKREKKDRVFTDKTSATVICRKNASISVRAQDRYYSSSWSEWASVPCSGGGGSGGGGSGGGGSGGGGSGRNLPVATPDPGMFPCLHHSQNLLRAVSNMLQKARQTLEFYPCTSEEIDHEDITKDKTSTVEACLPLELTKNESCLNSRETSFITNGSCLASRKTSFMMALCLSSIYEDLKMYQVEFKTMNAKLLMDPKRQIFLDQNMLAVIDELMQALNFNSETVPQKSSLEEPDFYKTKIKLCILLHAFRIRAVTIDRVMSYLNAS
Turning to B1, in experiment [1], the “Biological activity of IL-12, HEK-PD-1-IL-12 reporter assay, % of rIL-12” value is 189%.

B2: PD-L1(I54Q/Y56F/E58M/R113T/M115L/S117A/G119K)-Fc/IL-12(F60A) (IL-12 at C-terminus of Fc) (Fc fusion)
chain 1: FTVTVPKDLYVVEYGSNMTIECKFPVEKQLDLAALQVFWMMEDKNIIQFVHGEEDLKVQHSSYRQRARLLKDQLSLGNAALQITDVKLQDAGVYTCLIAYKGADYKRITVKVNAPYNKINQRILVVDPVTSEHELTCQAEGYPKAEVIWTSSDHQVLSGKTTTTNSKREEKLFNVTSTLRINTTTNEIFYCTFRRLDPEENHTAELVIPELPLAHPPNERGSGDKTHTCPPCPAPEKKGGPSVFLFPPKPKDTLMISRTPEVTCVVVDVSHEDPEVKFNWYVDGVEVHNAKTKPREEQYNSTYRVVSVLTVLHQDWLNGKEYKCKVSNKALPAPIEKTISKAKGQPREPQVYVLPPSREEMTKNQVSLLCLVKGFYPSDIAVEWESNGQPENRYMTWPPVLDSDGSFFLYSKLTVDKSRWQQGNVFSCSVMHEALHNHYTQKSLSLSPGK
chain 2: FTVTVPKDLYVVEYGSNMTIECKFPVEKQLDLAALQVFWMMEDKNIIQFVHGEEDLKVQHSSYRQRARLLKDQLSLGNAALQITDVKLQDAGVYTCLIAYKGADYKRITVKVNAPYNKINQRILVVDPVTSEHELTCQAEGYPKAEVIWTSSDHQVLSGKTTTTNSKREEKLFNVTSTLRINTTTNEIFYCTFRRLDPEENHTAELVIPELPLAHPPNERGSGDKTHTCPPCPAPEDEGGPSVFLFPPKPKDTLMISRTPEVTCVVVDVSHEDPEVKFNWYVDGVEVHNAKTKPREEQYNSTYRVVSVLTVLHQDWLNGKEYKCKVSNKALPAPIEKTISKAKGQPREPQVYVYPPSREEMTKNQVSLTCLVKGFYPSDIAVEWESNGQPENNYKTTPPVLDEDGSFALVSKLTVDKSRWQQGNVFSCSVMHEALHNHYTQKSLSLSPGKGGGGSGGGGSGGGGSIWELKKDVYVVELDWYPDAPGEMVVLTCDTPEEDGITWTLDQSSEVLGSGKTLTIQVKEAGDAGQYTCHKGGEVLSHSLLLLHKKEDGIWSTDILKDQKEPKNKTFLRCEAKNYSGRFTCWWLTTISTDLTFSVKSSRGSSDPQGVTCGAATLSAERVRGDNKEYEYSVECQEDSACPAAEESLPIEVMVDAVHKLKYENYTSSFFIRDIIKPDPPKNLQLKPLKNSRQVEVSWEYPDTWSTPHSYFSLTFCVQVQGKSKREKKDRVFTDKTSATVICRKNASISVRAQDRYYSSSWSEWASVPCSGGGGSGGGGSGGGGSGGGGSGRNLPVATPDPGMFPCLHHSQNLLRAVSNMLQKARQTLEFYPCTSEEIDHEDITKDKTSTVEACLPLELTKNESCLNSRETSFITNGSCLASRKTSFMMALCLSSIYEDLKMYQVEFKTMNAKLLMDPKRQIFLDQNMLAVIDELMQALNFNSETVPQKSSLEEPDFYKTKIKLCILLHAFRIRAVTIDRVMSYLNAS
Regarding B2, the “Biological activity of IL-12, HEK-PD-1-IL-12 reporter assay, % of rIL-12” value in experiment [1] came out at 234%.

B3: IL-12(E59A/F60A)/IFN-γ(A23V/A23V)/PD-L2(mut4)-Fc (Fc fusion)
chain 1: LFTVTVPKELYIIEHGSNVTLECNFDTGSHVNLGAIVAVLLKVENDTSPHRERATLLEEQLPLGKASFHIPQVQVRDEGQYQCIIIYGVAWDYKYLTLKVKASYRKINTHILKVPETDEVELTCQATGYPLAEVSWPNVSVPANTSHSRTPEGLYQVTSVLRLKPPPGRNFSCVFWNTHVRELTLASIDLQSQMEPRTHPTGGGGSGGGIWELKKDVYVVELDWYPDAPGEMVVLTCDTPEEDGITWTLDQSSEVLGSGKTLTIQVKAAGDAGQYTCHKGGEVLSHSLLLLHKKEDGIWSTDILKDQKEPKNKTFLRCEAKNYSGRFTCWWLTTISTDLTFSVKSSRGSSDPQGVTCGAATLSAERVRGDNKEYEYSVECQEDSACPAAEESLPIEVMVDAVHKLKYENYTSSFFIRDIIKPDPPKNLQLKPLKNSRQVEVSWEYPDTWSTPHSYFSLTFCVQVQGKSKREKKDRVFTDKTSATVICRKNASISVRAQDRYYSSSWSEWASVPCSGGGGSGGGSGGGGSRNLPVATPDPGMFPCLHHSQNLLRAVSNMLQKARQTLEFYPCTSEEIDHEDITKDKTSTVEACLPLELTKNESCLNSRETSFITNGSCLASRKTSFMMALCLSSIYEDLKMYQVEFKTMNAKLLMDPKRQIFLDQNMLAVIDELMQALNFNSETVPQKSSLEEPDFYKTKIKLCILLHAFRIRAVTIDRVMSYLNASGGGGSGGGDKTHTCPPCPAPEDEGGPSVFLFPPKPKDTLMISRTPEVTCVVVDVSHEDPEVKFNWYVDGVEVHNAKTKPREEQYNSTYRVVSVLTVLHQDWLNGKEYKCKVSNKALPAPIEKTISKAKGQPREPQVYVYPPSREEMTKNQVSLTCLVKGFYPSDIAVEWESNGQPENNYKTTPPVLDEDGSFALVSKLTVDKSRWQQGNVFSCSVMHEALHNHYTQKSLSLSPGK
chain 2: LFTVTVPKELYIIEHGSNVTLECNFDTGSHVNLGAIVAVLLKVENDTSPHRERATLLEEQLPLGKASFHIPQVQVRDEGQYQCIIIYGVAWDYKYLTLKVKASYRKINTHILKVPETDEVELTCQATGYPLAEVSWPNVSVPANTSHSRTPEGLYQVTSVLRLKPPPGRNFSCVFWNTHVRELTLASIDLQSQMEPRTHPTGGGSGQDPYVKEAENLKKYFNAGHSDVVDNGTLFLGILKNWKEESDRKIMQSQIVSFYFKLFKNFKDDQSIQKSVETIKEDMNVKFFNSNKKKRDDFEKLTNYSVTDLNVQRKAIHELIQVMAELSPAAKTGKRKRSQMLFRGGGGSGGGGSGGGGSGGGGSQDPYVKEAENLKKYFNAGHSDVVDNGTLFLGILKNWKEESDRKIMQSQIVSFYFKLFKNFKDDQSIQKSVETIKEDMNVKFFNSNKKKRDDFEKLTNYSVTDLNVQRKAIHELIQVMAELSPAAKTGKRKRSQMLFRGGGGGSGGGDKTHTCPPCPAPEKKGGPSVFLFPPKPKDTLMISRTPEVTCVVVDVSHEDPEVKFNWYVDGVEVHNAKTKPREEQYNSTYRVVSVLTVLHQDWLNGKEYKCKVSNKALPAPIEKTISKAKGQPREPQVYVLPPSREEMTKNQVSLLCLVKGFYPSDIAVEWESNGQPENRYMTWPPVLDSDGSFFLYSKLTVDKSRWQQGNVFSCSVMHEALHNHYTQKSLSLSPGK
As for B3, in experiment [2], the “IFN-γ signal transduction, HEK-IFN-γ-PD-1” value turned out to be 40% and the “IL-12 signal transduction, HEK-IL-12-PD-1” value was 49%. In experiment [3], the “IL-12 signal transduction, HEK-IL-12” value is below 0.2%. Further, the “IFN-γ signal transduction, HEK-IFN-γ” value in experiment [4] was below 0.1%.
